Publication PMC7772352

Target: Tva-HA-Fc

Row | Substance | percentage of GFP fluorescence signal in DF-1 cells transfected with RCASBPGDFX0602 G196A-EGFP (recombinant virus; wild type 89.65%) [%] | percentage of GFP fluorescence signal in DF-1 cells transfected with RCASBP GDFX0602 R198H-EGFP (recombinant virus; wild type 89.65%) [%]
1 | soluble gp85-flag G196A (natural protein) | 0.24 | –
2 | soluble gp85-flag R198H (natural protein) | – | 0.49
